From article PMC9044407 (Protein Science : A Publication of the Protein Society, 2022)
Read-outs that look alike come from different tables or passages of the source. One block for each binder: values may come before it.

What was measured:
Suv3 [1] = target: T1, Suv3 (human, UniProt Q8IYB8 48-786); experiment: fluorescence polarization
T1 sequence: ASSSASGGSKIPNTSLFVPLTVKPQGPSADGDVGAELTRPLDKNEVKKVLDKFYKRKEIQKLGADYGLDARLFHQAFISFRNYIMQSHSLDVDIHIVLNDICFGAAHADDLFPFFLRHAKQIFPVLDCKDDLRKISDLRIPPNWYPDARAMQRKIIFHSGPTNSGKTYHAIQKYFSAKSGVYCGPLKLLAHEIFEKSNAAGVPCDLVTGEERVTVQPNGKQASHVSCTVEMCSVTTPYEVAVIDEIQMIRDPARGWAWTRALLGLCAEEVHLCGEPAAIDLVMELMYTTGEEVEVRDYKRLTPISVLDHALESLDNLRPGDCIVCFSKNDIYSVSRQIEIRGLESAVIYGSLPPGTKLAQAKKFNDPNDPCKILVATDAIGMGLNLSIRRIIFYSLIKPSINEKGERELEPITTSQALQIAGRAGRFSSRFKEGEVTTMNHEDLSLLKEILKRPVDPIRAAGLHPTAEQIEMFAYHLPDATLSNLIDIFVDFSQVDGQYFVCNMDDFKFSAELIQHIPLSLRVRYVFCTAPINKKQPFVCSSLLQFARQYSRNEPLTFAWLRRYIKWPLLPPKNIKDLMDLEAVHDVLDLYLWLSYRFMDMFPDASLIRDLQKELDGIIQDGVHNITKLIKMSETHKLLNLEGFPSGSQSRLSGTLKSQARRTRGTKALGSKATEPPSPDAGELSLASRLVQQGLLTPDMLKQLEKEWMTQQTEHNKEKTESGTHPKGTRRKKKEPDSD

Suv3 [2] = target: T1, Suv3; experiment: fluorescence polarization; remark: listed apart in the source
[3] = target: T2, human Suv3 (residues 48–786), N-terminal His-tagged (human, UniProt Q8IYB8 48-786); experiment: SEC
T2 sequence (looked up): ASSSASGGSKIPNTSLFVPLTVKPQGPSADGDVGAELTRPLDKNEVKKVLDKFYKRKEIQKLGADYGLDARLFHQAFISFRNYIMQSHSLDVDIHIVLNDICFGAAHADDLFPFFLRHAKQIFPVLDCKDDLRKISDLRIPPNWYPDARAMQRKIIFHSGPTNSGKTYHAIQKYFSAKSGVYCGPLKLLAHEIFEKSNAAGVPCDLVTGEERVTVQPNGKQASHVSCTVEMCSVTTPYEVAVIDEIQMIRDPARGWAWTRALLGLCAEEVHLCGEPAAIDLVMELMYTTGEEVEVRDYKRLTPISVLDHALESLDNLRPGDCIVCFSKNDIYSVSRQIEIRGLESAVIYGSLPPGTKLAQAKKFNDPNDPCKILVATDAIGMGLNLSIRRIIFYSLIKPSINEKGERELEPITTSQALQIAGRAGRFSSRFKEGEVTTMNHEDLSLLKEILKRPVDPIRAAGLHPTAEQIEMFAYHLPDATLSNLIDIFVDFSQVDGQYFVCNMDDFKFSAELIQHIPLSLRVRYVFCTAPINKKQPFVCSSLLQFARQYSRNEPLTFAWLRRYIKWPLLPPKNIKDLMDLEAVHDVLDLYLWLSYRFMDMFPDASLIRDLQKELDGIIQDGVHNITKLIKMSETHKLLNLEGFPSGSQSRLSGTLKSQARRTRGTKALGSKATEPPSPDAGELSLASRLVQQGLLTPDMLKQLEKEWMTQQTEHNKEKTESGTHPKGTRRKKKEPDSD

[4] = target: the molecule itself
Suv3 [5] = target: T1, Suv3; experiment: fluorescence polarization; remark: listed apart in the source
Suv3ΔC = target: T3, Suv3ΔC (human, UniProt Q8IYB8 48-722, del723-786); experiment: fluorescence polarization
T3 sequence: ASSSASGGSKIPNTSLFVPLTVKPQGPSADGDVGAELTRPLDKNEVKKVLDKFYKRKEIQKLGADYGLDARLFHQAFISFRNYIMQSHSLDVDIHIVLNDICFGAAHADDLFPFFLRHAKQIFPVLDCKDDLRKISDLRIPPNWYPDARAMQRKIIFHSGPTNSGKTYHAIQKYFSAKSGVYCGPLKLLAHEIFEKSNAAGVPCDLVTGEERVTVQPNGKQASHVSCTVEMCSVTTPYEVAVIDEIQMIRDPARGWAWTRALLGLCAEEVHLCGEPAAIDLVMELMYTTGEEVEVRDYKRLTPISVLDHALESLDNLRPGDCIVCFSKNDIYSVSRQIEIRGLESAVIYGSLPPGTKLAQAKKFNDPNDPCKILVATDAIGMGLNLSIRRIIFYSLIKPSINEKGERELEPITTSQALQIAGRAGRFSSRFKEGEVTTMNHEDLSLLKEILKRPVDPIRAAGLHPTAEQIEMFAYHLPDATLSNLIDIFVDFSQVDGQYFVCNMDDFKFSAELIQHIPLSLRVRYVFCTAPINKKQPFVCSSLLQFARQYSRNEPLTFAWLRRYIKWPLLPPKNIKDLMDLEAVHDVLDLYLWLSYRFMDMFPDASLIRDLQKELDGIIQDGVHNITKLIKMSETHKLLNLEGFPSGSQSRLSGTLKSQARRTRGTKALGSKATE

Suv3 [6] = target: T1, Suv3; experiment: fluorescence polarization; remark: listed apart in the source
Suv3 [7] = target: T1, Suv3; experiment: fluorescence polarization; remark: listed apart in the source
Suv3 [8] = target: T1, Suv3; experiment: fluorescence polarization; remark: listed apart in the source

B1: blunt-end dsRNA (dsRNA)
RNA 1: GGUGUGGUGGCAUACGUGCAGACGC
RNA 2: GCGUCUGCACGUAUGCCACCACACC
binding result (Suv3 [1]): no binding

B2: dsRNA 15-nt 3' overhang (dsRNA)
RNA 1: GGUGUGGUGGCAUACGUGCAGACGC
RNA 2: GCGUCUGCACGUAUGCCACCACACCAGGAGAGGAGAGGAG
Kd (Suv3 [2]): ~18 nM

binding result [3]: binds
B3: human PNPase (residues 46–783), C-terminal His-tagged (enzyme, UniProt Q8TCS8 46-783, looked up)
chain: AVAVDLGNRKLEISSGKLARFADGSAVVQSGDTAVMVTAVSKTKPSPSQFMPLVVDYRQKAAAAGRIPTNYLRREIGTSDKEILTSRIIDRSIRPLFPAGYFYDTQVLCNLLAVDGVNEPDVLAINGASVALSLSDIPWNGPVGAVRIGIIDGEYVVNPTRKEMSSSTLNLVVAGAPKSQIVMLEASAENILQQDFCHAIKVGVKYTQQIIQGIQQLVKETGVTKRTPQKLFTPSPEIVKYTHKLAMERLYAVFTDYEHDKVSRDEAVNKIRLDTEEQLKEKFPEADPYEIIESFNVVAKEVFRSIVLNEYKRCDGRDLTSLRNVSCEVDMFKTLHGSALFQRGQTQVLCTVTFDSLESGIKSDQVITAINGIKDKNFMLHYEFPPYATNEIGKVTGLNRRELGHGALAEKALYPVIPRDFPFTIRVTSEVLESNGSSSMASACGGSLALMDSGVPISSAVAGVAIGLVTKTDPEKGEIEDYRLLTDILGIEDYNGDMDFKIAGTNKGITALQADIKLPGIPIKIVMEAIQQASVAKKEILQIMNKTISKPRASRKENGPVVETVQVPLSKRAKFVGPGGYNLKKLQAETGVTISQVDEETFSVFAPTPSAMHEARDFITEICKDDQEQQLEFGAVYTATITEIRDTGVMVKLYPNMTAVLLHNTQLDQRKIKHPTALGLEVGQEIQVKYFGRDPADGRMRLSRKVLQSPATTVVRTLNDRSSIVMGEPISQSSSNSQ
stoichiometry N [4]: 3

B4: blunt-end dsDNA (dsDNA)
DNA 1: GGTGTGGTGGCATACGTGCAGACGC
DNA 2: GCGTCTGCACGTATGCCACCACACC
Kd (Suv3 [2]): 63.9 ± 1.5 nM

Binder: GGUGUGGUGGCAUACGUGCAGACGC (ssRNA) [ssRNA 25 nt]
Kd (Suv3 [2]): 53.1 ± 0.7 nM

B5: dsRNA 5-nt 3' overhang (dsRNA)
RNA 1: GGUGUGGUGGCAUACGUGCAGACGC
RNA 2: GCGUCUGCACGUAUGCCACCACACCAGGAG
Kd (Suv3 [2]): ~65 nM

Binder: GGTGTGGTGGCATACGTGCAGACGC (ssDNA) [ssDNA 25 nt]
Kd (Suv3 [2]): 44 ± 1.7 nM

B6: dsDNA 10-nt 5' overhang (dsDNA)
DNA 1: GGTGTGGTGGCATACGTGCAGACGC
DNA 2: GAGGAGAGGAGCGTCTGCACGTATGCCACCACACC
binding signal (Suv3 [5]): 8 fold lower affinity than 3' overhang dsDNA

B7: dsRNA 10-nt 5' overhang (dsRNA)
RNA 1: GGUGUGGUGGCAUACGUGCAGACGC
RNA 2: GAGGAGAGGAGCGUCUGCACGUAUGCCACCACACC
binding result (Suv3 [1]): no binding

B8: DNA-RNA hybrid 10-nt 5' overhang (DNA:RNA)
DNA: GGTGTGGTGGCATACGTGCAGACGC
RNA: GAGGAGAGGAGCGUCUGCACGUAUGCCACCACACC
binding signal (Suv3 [5]): 23 fold lower affinity than 3' overhang DNA-RNA hybrid

B9: blunt-end DNA-RNA hybrid (DNA:RNA)
DNA: GGTGTGGTGGCATACGTGCAGACGC
RNA: GCGUCUGCACGUAUGCCACCACACC
Kd (Suv3 [2]): 103 ± 5.9 nM

B10: dsRNA 20-nt 3' overhang (dsRNA)
RNA 1: GGUGUGGUGGCAUACGUGCAGACGC
RNA 2: GCGUCUGCACGUAUGCCACCACACCAGGAGAGGAGAGGAGAGGAG
Kd (Suv3 [2]): ~18 nM

B11: dsDNA 10-nt 3' overhang (dsDNA)
DNA 1: GGTGTGGTGGCATACGTGCAGACGC
DNA 2: GCGTCTGCACGTATGCCACCACACCAGGAGAGGAG
Kd (Suv3 [2]): 11.5 ± 0.2 nM | Kd (Suv3ΔC): 99 ± 8.6 nM

B12: DNA-RNA hybrid 10-nt 3' overhang (DNA:RNA)
DNA: GGTGTGGTGGCATACGTGCAGACGC
RNA: GCGUCUGCACGUAUGCCACCACACCAGGAGAGGAG
Kd (Suv3 [2]): 13.1 ± 0.4 nM | Kd (Suv3ΔC): 110 ± 9.5 nM

B13: dsRNA 10-nt 3' overhang (dsRNA)
RNA 1: GGUGUGGUGGCAUACGUGCAGACGC
RNA 2: GCGUCUGCACGUAUGCCACCACACCAGGAGAGGAG
Kd (Suv3 [2]): 18.7 ± 0.7 nM | Kd (Suv3 [6]): 62.2 ± 2.2 nM | Kd (Suv3 [7]): 19.3 ± 0.5 nM | Kd (Suv3 [8]): 32.6 ± 0.6 nM
